Source: article doi:10.1101/2022.09.21.508879
One block for each substance: values may come before it.

Key:
[1] = molecular target: Homo sapiens CFAP410 C-terminal domain, wild type (Homo sapiens) (UniProt O43822); assay: crystal structure
[2] = molecular target: Chlamydomonas reinhardtii CFAP410 C-terminal domain, mutant A219E (Chlamydomonas reinhardtii); assay: SEC-MALS
[3] = molecular target: Chlamydomonas reinhardtii CFAP410 C-terminal domain, wild type (Chlamydomonas reinhardtii); assay: SEC-MALS
[4] = molecular target: Chlamydomonas reinhardtii CFAP410 C-terminal domain, wild type (Chlamydomonas reinhardtii); assay: crystal structure
[5] = molecular target: Trypanosoma brucei CFAP410 C-terminal domain, wild type (Trypanosoma brucei); assay: crystal structure

- stoichiometry N [1]: 4
Substance: Homo sapiens CFAP410 C-terminal domain, wild type (from UniProt O43822 212-246) (peptide)

Substance: Chlamydomonas reinhardtii CFAP410 C-terminal domain, mutant A219E (peptide)
- stoichiometry N [2]: 2

Substance: Chlamydomonas reinhardtii CFAP410 C-terminal domain, wild type (peptide)
- stoichiometry N [3]: 4
- stoichiometry N [4]: 4

Substance: Trypanosoma brucei CFAP410 C-terminal domain, wild type (peptide)
- stoichiometry N [5]: 4
